From article PMC11300603

Tests used:
[1] = molecular target: CpaF from C. crescentus (C. crescentus NA1000); assay: cryo-EM structure; 5 mg/mL CpaF with 4 mM ADP, 5 mM MgSO4 in total, 8 mM CHAPSO, 45 min at room temperature before vitrification; single particle, C2 symmetry
[2] = molecular target: CpaF from C. crescentus (C. crescentus NA1000); assay: cryo-EM structure; 5 mg/mL CpaF with 4 mM AMPPNP, 5 mM MgSO4 in total, 8 mM CHAPSO, 45 min at room temperature before vitrification; single particle, C2 symmetry
[3] = molecular target: CpaF from C. crescentus (C. crescentus NA1000); assay: cryo-EM structure; 5 mg/mL CpaF without nucleotide addition, in the presence of Mg2+, 8 mM CHAPSO; single particle, C2 symmetry

Measured: stoichiometry N

CpaF from C. crescentus (enzyme)
6: all assays above
